# Measurements taken from patent US20020103123A1, “Methods of modifying feeding behavior, compounds useful in such methods, and DNA encoding a hypothalamic atypical neuropeptide Y/peptide YY receptor (Y5)” (Synaptic Pharmaceutical Corporation, published 2002).
# Read-outs that look alike come from different tables or passages of the source. Ends that are not written are not given here.
# T1: rat hypothalamic Y5 receptor (rat)
# T1 chain: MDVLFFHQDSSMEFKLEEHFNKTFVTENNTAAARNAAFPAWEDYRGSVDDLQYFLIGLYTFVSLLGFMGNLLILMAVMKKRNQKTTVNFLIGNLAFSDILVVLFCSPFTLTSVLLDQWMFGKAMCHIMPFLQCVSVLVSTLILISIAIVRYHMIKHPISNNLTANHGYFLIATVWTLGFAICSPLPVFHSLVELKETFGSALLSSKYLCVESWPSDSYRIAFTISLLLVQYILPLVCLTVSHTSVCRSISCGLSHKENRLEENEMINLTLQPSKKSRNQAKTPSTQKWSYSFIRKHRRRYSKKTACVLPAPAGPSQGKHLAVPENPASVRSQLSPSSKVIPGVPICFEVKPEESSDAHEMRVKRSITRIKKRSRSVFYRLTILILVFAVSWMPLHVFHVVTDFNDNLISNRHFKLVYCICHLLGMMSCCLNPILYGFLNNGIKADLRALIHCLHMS
# T2: human hippocampal Y5 receptor (human)
# T2 chain: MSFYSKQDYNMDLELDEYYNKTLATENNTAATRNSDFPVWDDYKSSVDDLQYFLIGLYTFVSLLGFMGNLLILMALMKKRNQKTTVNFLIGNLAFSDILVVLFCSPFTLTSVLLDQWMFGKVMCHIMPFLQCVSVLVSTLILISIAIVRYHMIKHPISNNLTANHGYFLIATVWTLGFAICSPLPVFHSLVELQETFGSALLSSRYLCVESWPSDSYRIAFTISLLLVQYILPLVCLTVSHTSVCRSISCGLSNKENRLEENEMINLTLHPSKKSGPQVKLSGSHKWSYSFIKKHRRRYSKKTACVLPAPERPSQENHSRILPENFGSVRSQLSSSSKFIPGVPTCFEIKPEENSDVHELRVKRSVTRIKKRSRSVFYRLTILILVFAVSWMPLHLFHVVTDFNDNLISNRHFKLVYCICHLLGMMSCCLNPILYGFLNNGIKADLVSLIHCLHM
# T3: rat Y2 receptor (rat, UniProt Q9ERC0)
# T3 sequence: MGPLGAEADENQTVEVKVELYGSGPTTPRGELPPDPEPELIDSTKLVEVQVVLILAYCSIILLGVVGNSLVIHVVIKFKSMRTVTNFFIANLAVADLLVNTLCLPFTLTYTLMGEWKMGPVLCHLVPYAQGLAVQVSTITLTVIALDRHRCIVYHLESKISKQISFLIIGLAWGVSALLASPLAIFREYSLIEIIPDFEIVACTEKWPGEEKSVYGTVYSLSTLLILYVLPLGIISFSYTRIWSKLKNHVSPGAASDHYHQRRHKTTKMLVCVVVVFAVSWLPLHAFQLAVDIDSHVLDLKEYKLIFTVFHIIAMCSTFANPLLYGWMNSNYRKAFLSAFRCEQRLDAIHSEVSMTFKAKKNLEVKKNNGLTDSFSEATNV
# T4: human Y2 receptor (human, UniProt P49146)
# T4 sequence: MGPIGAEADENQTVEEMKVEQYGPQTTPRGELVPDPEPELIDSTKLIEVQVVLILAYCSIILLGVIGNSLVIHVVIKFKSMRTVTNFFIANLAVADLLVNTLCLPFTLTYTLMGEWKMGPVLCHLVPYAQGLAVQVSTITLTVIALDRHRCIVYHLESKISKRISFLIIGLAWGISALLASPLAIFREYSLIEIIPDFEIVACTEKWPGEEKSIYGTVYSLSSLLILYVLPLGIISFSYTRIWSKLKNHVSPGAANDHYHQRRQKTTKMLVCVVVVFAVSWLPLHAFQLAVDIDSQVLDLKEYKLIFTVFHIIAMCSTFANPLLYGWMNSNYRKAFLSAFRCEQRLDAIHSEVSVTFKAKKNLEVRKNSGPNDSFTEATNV
# Assays:
# [1] = biological target: T1, rat hypothalamic Y5 receptor; assay: 125I-PYY displacement, COS-7 membranes
# Procedure: (§1) Peptides were tested at concentrations ranging from 0.001 nM to 1000 nM. IC₅₀ values corresponding to 50% displacement were determined by nonlinear regression analysis and converted to Kᵢ values according to the Cheng-Prusoff equation. […] Exception: new peptides (marked with a double asterisk) were tested in one or more independent experiments.
# [2] = biological target: T2, human hippocampal Y5 receptor; assay: 125I-PYY displacement, COS-7 membranes
# Procedure: (§2) Peptides were tested at concentrations ranging from 0.001 nM to 1000 nM. IC₅₀ values corresponding to 50% displacement were determined by nonlinear regression analysis and converted to Kᵢ values according to the Cheng-Prusoff equation.
# [3] = biological target: T2, human hippocampal Y5 receptor; assay: 125I-PYY displacement, COS-7 membranes
# Procedure: (§3) Peptides were tested at concentrations ranging from 0.001 nM to 1000 nM unless noted. IC₅₀ values corresponding to 50% displacement were determined by nonlinear regression analysis and converted to Kᵢ values according to the Cheng-Prusoff equation.
# rat Y1 receptor = rat Y1 receptor (rat, UniProt P21555); assay: 125I-PYY displacement, COS-7 membranes
# Procedure: as §1
# [4] = biological target: T1, rat hypothalamic Y5 receptor; assay: 125I-PYY displacement, COS-7 membranes
# Procedure: as §2
# rat Y2 receptor = biological target: T3, rat Y2 receptor; assay: 125I-PYY displacement, COS-7 membranes
# Procedure: as §1
# human Y1 receptor [5] = biological target: T5, human Y1 receptor (human, UniProt P25929); assay: 125I-PYY displacement, COS-7 membranes
# Procedure: as §3
# human Y2 receptor [6] = biological target: T4, human Y2 receptor; assay: 125I-PYY displacement, COS-7 membranes
# Procedure: as §3
# human Y1 receptor [7] = biological target: T5, human Y1 receptor; assay: 125I-PYY displacement, COS-7 membranes; remark: listed apart in the source
# Procedure: as §3
# human Y2 receptor [8] = biological target: T4, human Y2 receptor; assay: 125I-PYY displacement, COS-7 membranes; remark: listed apart in the source
# Procedure: as §3
# [9] = biological target: T2, human hippocampal Y5 receptor; assay: 125I-PYY3-36 displacement, LM(tk-) membranes
# Procedure: as §2
# rat Y4 receptor = rat Y4 receptor (rat, UniProt Q63447); assay: 125I-PYY displacement, COS-7 membranes
# Procedure: as §1
# human Y4 receptor [10] = biological target: T6, human Y4 receptor (human, UniProt P50391); assay: 125I-PYY displacement, COS-7 membranes
# Procedure: as §3
# human Y4 receptor [11] = biological target: T6, human Y4 receptor; assay: 125I-PYY displacement, COS-7 membranes; remark: listed apart in the source
# Procedure: as §3
# [12] = biological target: T1, rat hypothalamic Y5 receptor; assay: 125I-PYY displacement, COS-7 membranes
# Procedure: as §3
# [13] = biological target: T2, human hippocampal Y5 receptor; assay: 125I-PYY displacement, LM(tk-) membranes
# Procedure: as §2
# human Y1 receptor [14] = biological target: T5, human Y1 receptor; assay: 125I-PYY displacement, COS-7 membranes; tested only up to 100 nM
# human Y2 receptor [15] = biological target: T4, human Y2 receptor; assay: as above
# human Y1 receptor [16] = biological target: T5, human Y1 receptor; assay: as above; remark: listed apart in the source
# human Y2 receptor [17] = biological target: T4, human Y2 receptor; assay: as above; remark: listed apart in the source
Binder,Ki [1] [nM],Ki [2] [nM],Ki (rat Y1 receptor) [nM],Ki [4] [nM],Ki (rat Y2 receptor) [nM],further results
YYSALRHYINLITRQRY (ends and bridges not checked) [porcine NPY20-36],> 100,–,–,–,–,–
PLEPVYPGDNATPEQMAQYAADLRRYINMLTRPRY [human PP2-36],–,2.1,–,–,–,Ki [3]: 2.1 nM
SPEELNRYYASLRHYLNLVTRQRY [human PYY13-36],–,–,130,–,–,–
SALRHYINLITRQRY (ends and bridges not checked) [porcine NPY22-36],> 1000,> 1000,> 1000,> 1000,54,–
PAEDLARYYSALRHYINLITRQRY (ends and bridges not checked) [porcine NPY13-36],–,–,190,–,31,–
HYINLITRQRY (ends and bridges not checked) [porcine NPY26-36],–,–,> 1000,–,–,Ki (human Y1 receptor [5]): > 1000 nM; Ki (human Y2 receptor [6]): 380 nM; Ki (human Y1 receptor [7]): > 1000 nM; Ki (human Y2 receptor [8]): 380 nM
FLRF-NH2 [FLRF-amide],5500,–,45000,–,–,–
PLEPVY [human PP31-36],> 1000,> 10000,> 10000,> 10000,> 10000,Ki [9]: 41000 nM; Ki (rat Y4 receptor): 26 nM
ARYYSALRHYINLITRQRY (ends and bridges not checked) [porcine NPY18-36],> 1000,> 470,–,> 1000,–,–
APLEPMYPGDYATHEQRAQYETQLRRYINTLTRPRY [rat PP],230,630,–,230,> 1000,Ki (human Y1 receptor [5]): 450 nM; Ki (human Y2 receptor [6]): > 1000 nM; Ki [3]: 630 nM; Ki (human Y4 receptor [10]): 0.16 nM; Ki [9]: 130 nM; Ki (human Y1 receptor [7]): 450 nM; Ki (human Y2 receptor [8]): > 1000 nM; Ki (human Y4 receptor [11]): 0.16 nM; Ki [12]: 180 nM
APLEPVYPGDNATPEQMAQYAADLRRYINMLTRPRY [human PP],5,–,–,5,> 1000,Ki [13]: 3 nM; Ki [12]: 5 nM; Ki (rat Y4 receptor): 0.04 nM
APLEPEYPGDNATPEQMAQYAAELRRYINMLTRPRY [bovine PP],8.4,1.6,120,8.4,> 1000,Ki [13]: 7.9 nM; Ki [9]: 5 nM
PLEPVY-OH [human PP31-36 free acid],> 10000,–,–,–,–,Ki (rat Y4 receptor): > 100 nM
DLARYYSALRHYINLITRQRY (ends and bridges not checked) [porcine NPY16-36],260,300,140,260,35,Ki [9]: 180 nM; Ki (rat Y4 receptor): 200 nM
YPSKPDNPGEDAPAEDMARYYSAL-NH2 [human NPY1-24 amide],> 1000,–,–,–,–,–
TPEQMAQYAADLRRYINMLTRPRY [human PP13-36],84,720,> 1000,290,> 650,Ki (human Y1 receptor [14]): > 100 nM; Ki (human Y2 receptor [15]): > 100 nM; Ki (human Y1 receptor [16]): > 100 nM; Ki (human Y2 receptor [17]): > 100 nM; Ki [3]: 720 nM; Ki (human Y4 receptor [10]): 39 nM; Ki (human Y4 receptor [11]): 39 nM
